The source of these data is patent publication US20200216495A1 (ADRX, published 2020).

Values joined by “and” are separate entries in the source; they are usually repeats but may differ in a detail not shown here. Equal values may be shown once. Square brackets hold non-standard residues; d marks the D form. Ends that are not written are not given here. dCit = NC(=O)NCCC[C@@H](N)C(=O)O; dNle = CCCC[C@@H](N)C(=O)O

This assay deals with Tau40 P301L protein (human). Kind of assay: cell-based or functional assay.
As to [dW][dK][dV][dQ][dV][dR][dL][dW] [wkvqvrlw (PEPTIDE ID NO: 2)], the “IC50, Tau40 assay (ThT)” value is 2260 nM and 950 nM and 2390 nM and 820 nM.
As for [dF][dR][dV][dK][dI][dQ][dH][dW] [frvkiqhw (PEPTIDE ID NO: 120)], the figure is 2490 nM.
As for [dR][dI][dR][dW][dY][dW][dK] [rirwywk (PEPTIDE ID NO: 311)], the figure is 2270 nM.
In the case of [dL][dE][dI][dR][dI][dH][dY] [leirihy (PEPTIDE ID NO: 316)] it was 2430 nM; in that of [dW][dE][dL][dR][dI][dH][dW] [welrihw (PEPTIDE ID NO: 322)], 2580 nM; in that of [dL][dK][dI][dR][dI][dH][dE][dH] [lkiriheh (PEPTIDE ID NO: 318)], 2450 nM.
On to [dW][dW][dL][dK][dL][dR][dW][dW] [wwlklrww (PEPTIDE ID NO: 81)], for which the “IC50, Tau40 assay (ThT)” value stood at 2520 nM.
As for [dL][dK][dI][dCit][dI][dH][dY] [lkizihy (PEPTIDE ID NO: 320)], the figure is 2470 nM.
As for [dH][dY][dH][dI][dR][dI][dK][dL] [hyhirikl (PEPTIDE ID NO: 300)], the figure is 1940 nM.
In the case of [dP][dR][dI][dR][dL][dH][dW] [prirlhw (PEPTIDE ID NO: 33)] it was 1940 nM and 1950 nM; in that of [dW][dQ][dL][dK][dV][dQ][dW] [wqlkvqw (PEPTIDE ID NO: 319)], 2470 nM; in that of [dL][dK][dI][dR][dI][dL][dY][dH] [lkirilyh (PEPTIDE ID NO: 208)], 790 nM.
Consider [dH][dW][dR][dW][dR][dW][dR] [hwrwrwr (PEPTIDE ID NO: 326)], for which the “IC50, Tau40 assay (ThT)” value was 2690 nM.
In the case of [dR][dI][dR][dL][dR][dW] [rirlrw (PEPTIDE ID NO: 38)] it was 2040 nM and 2200 nM.
As for [dL][dA][dI][dR][dI][dH][dY][dH] [lairihyh (PEPTIDE ID NO: 309)], the figure is 2190 nM; as for [dL][dK][dL][dE][dI][dR][dW][dH] [lkleirwh (PEPTIDE ID NO: 429)], 2420 nM.
As for [dF][dR][dI][dR][dI][dH][dH][dF] [fririhhf (PEPTIDE ID NO: 113)], the figure is 740 nM and 810 nM.
For [dF][dE][dI][dR][dI][dH][dY][dH] [feirihyh (PEPTIDE ID NO: 442)], the “IC50, Tau40 assay (ThT)” value was 2590 nM.
[dL][dK][dI][dR][dI][dE][dH][dY] [lkiriehy (PEPTIDE ID NO: 155)]: the “IC50, Tau40 assay (ThT)” value amounted to 2450 nM.
In the case of [dA][dR][dL][dR][dI][dH][dW] [arlrihw (PEPTIDE ID NO: 312)] it was 2280 nM; in that of [dL][dK][dL][dK][dI][dK][dH][dF] [lklkikhf (PEPTIDE ID NO: 154)], 2210 nM.
In the case of [dL][dR][dV][dQ][dV][dR][dL] [lrvqvrl (PEPTIDE ID NO: 441)] it was 2130 nM; in that of [dW][dK][dL][dK][dL][dR][dW][dW] [wklklrww (PEPTIDE ID NO: 13)], 2560 nM; in that of [dL][dK][dI][dR][dI][dE][dY] [lkiriey (PEPTIDE ID NO: 324)], 2630 nM.
As for [dW][dL][dR][dV][dQ][dV][dK][dW] [wlrvqvkw (PEPTIDE ID NO: 111)], the figure is 2180 nM and 2210 nM; as for [dL][dK][dI][dR][dI][dA][dY][dH] [lkiriayh (PEPTIDE ID NO: 303)], 2030 nM.
[dT][dW][dR][dL][dK][dV][dR][dW] [twrlkvrw (PEPTIDE ID NO: 205)]: the “IC50, Tau40 assay (ThT)” value is 750 nM.
In the case of [dF][dR][dI][dK][dI][dR][dW] [frikirw (PEPTIDE ID NO: 61)] it was 2560 nM and 2570 nM; in that of [dW][dR][dL][dA][dI][dH][dW] [wrlaihw (PEPTIDE ID NO: 325)], 2650 nM; in that of [dR][dI][dR][dW][dR][dW] [rirwrw (PEPTIDE ID NO: 50)], 2020 nM.
In the case of [dK][dW][dR][dL][dK][dV][dR][dW] [kwrlkvrw (PEPTIDE ID NO: 207)] it was 780 nM; in that of [dW][dM][dL][dR][dI][dH][dW] [wmlrihw (PEPTIDE ID NO: 304)], 2070 nM; in that of [dY][dH][dL][dK][dL][dH][dY][dW] [yhlklhyw (PEPTIDE ID NO: 440)], 2170 nM.
In the case of [dF][dH][dI][dH][dI][dK][dF][dH] [fhihikfh (PEPTIDE ID NO: 437)] it was 2020 nM.
[dW][dR][dL][dK][dV][dR][dA] [wrlkvra (PEPTIDE ID NO: 323)]: the “IC50, Tau40 assay (ThT)” value came to 2610 nM.
As for [dV][dR][dW][dW][dW][dR][dL][dK] [vrwwwrlk (PEPTIDE ID NO: 204)], the figure is 740 nM; as for [dL][dK][dI][dM][dI][dH][dY] [lkimihy (PEPTIDE ID NO: 317)], 2440 nM; as for [dW][dK][dL][dW][dL][dR][dW][dW] [wklwlrww (PEPTIDE ID NO: 12)], 2670 nM.
As for [dW][dR][dL][dR][dI][dT][dW] [wrlritw (PEPTIDE ID NO: 314)], the figure is 2360 nM; as for [dR][dI][dK][dL][dR][dW] [riklrw (PEPTIDE ID NO: 24)], 2030 nM and 2060 nM.
In the case of [dW][dR][dI][dW][dI][dR][dY][dW] [wriwiryw (PEPTIDE ID NO: 105)] it was 2380 nM and 2610 nM; in that of [dL][dK][dI][dR][dI][dW][dY][dH] [lkiriwyh (PEPTIDE ID NO: 206)], 780 nM; in that of [dW][dR][dL][dN][dV][dR][dW] [wrlnvrw (PEPTIDE ID NO: 306)], 2070 nM.
As to [dW][dR][dL][dR][dI][dW][dW] [wrlriww (PEPTIDE ID NO: 103)], the “IC50, Tau40 assay (ThT)” value is 1980 nM.
As for [dL][dK][dI][dNle][dI][dH][dY] [lkiuihy (PEPTIDE ID NO: 321)], the figure is 2540 nM.
In the case of [dR][dL][dR][dI][dH][dW][dF] [rlrihwf (PEPTIDE ID NO: 446)] it was 2690 nM; in that of [dF][dE][dL][dR][dL][dH][dW][dH] [felrlhwh (PEPTIDE ID NO: 133)], 2110 nM and 2410 nM.
In the case of [dL][dK][dI][dF][dI][dY][dY][dH] [lkifiyyh (PEPTIDE ID NO: 302)] it was 1990 nM.
For [dW][dR][dL][dW][dV][dR][dW][dW] [wrlwvrww (PEPTIDE ID NO: 310)], the “IC50, Tau40 assay (ThT)” value was found to be 2230 nM.
As to [dW][dT][dL][dR][dI][dH][dW] [wtlrihw (PEPTIDE ID NO: 305)], the “IC50, Tau40 assay (ThT)” value turned out to be 2070 nM.
As for [dW][dR][dL][dA][dV][dR][dW] [wrlavrw (PEPTIDE ID NO: 301)], the figure is 1940 nM; as for [dF][dE][dL][dH][dI][dK][dW][dH] [felhikwh (PEPTIDE ID NO: 134)], 2340 nM; as for [dW][dR][dL][dK][dV][dE][dW][dW] [wrlkveww (PEPTIDE ID NO: 313)], 2300 nM.
Regarding [dW][dI][dK][dI][dW][dR] [wikiwr (PEPTIDE ID NO: 29)], the “IC50, Tau40 assay (ThT)” value came to 2020 nM.
In the case of [dW][dR][dL][dE][dV][dR][dW] [wrlevrw (PEPTIDE ID NO: 315)] it was 2400 nM.
With [dR][dL][dR][dI][dH][dW][dW] [rlrihww (PEPTIDE ID NO: 164)], the “IC50, Tau40 assay (ThT)” value was determined as 2050 nM.
